Here are results for 20 substances from PMC8165282.

The assay addresses duck STING-LgBiT-Myc (pBiT-STING-LgBiT-Myc). Description: NanoBiT luciferase complementation in DEFs. To be noted: pBiT-STING-LgBiT-Myc 400 ng/well, pBiT-2KNS4B-SmBiT-Flag or mutant 400 ng/well, 20 h posttransfection, read off a plot.

Turning to “duck TMUV 2KNS4B-SmBiT-Flag (pBiT-2KNS4B-SmBiT-Flag) N1A”, for the setting “parent: est. 3.3e7”, the response worked out at 3.6e+07 RLU.
The same measure, in the same setting: under “duck TMUV 2KNS4B-SmBiT-Flag (pBiT-2KNS4B-SmBiT-Flag) M3A” stands 2.2e+07 RLU; under “duck TMUV 2KNS4B-SmBiT-Flag (pBiT-2KNS4B-SmBiT-Flag) D34A”, 1.7e+07 RLU.
Take “duck TMUV 2KNS4B-SmBiT-Flag (pBiT-2KNS4B-SmBiT-Flag) K10A; K11A; D12A”: where the note is “parent: est. 1.7e6”, the response was 1.4e+06 RLU.
Regarding “duck TMUV 2KNS4B-SmBiT-Flag (pBiT-2KNS4B-SmBiT-Flag) N1A; E2A; M3A”, the response (parent: est. 1.7e6) was determined as 930000 RLU.
Regarding “duck TMUV 2KNS4B-SmBiT-Flag (pBiT-2KNS4B-SmBiT-Flag) K11A”, the response (parent: est. 3.3e7) was 2.6e+07 RLU.
Still for that read-out and setting: under “duck TMUV 2KNS4B-SmBiT-Flag (pBiT-2KNS4B-SmBiT-Flag) D12A” stands 2.4e+07 RLU; under “duck TMUV 2KNS4B-SmBiT-Flag (pBiT-2KNS4B-SmBiT-Flag) G4A”, 2.3e+07 RLU; under “duck TMUV 2KNS4B-SmBiT-Flag (pBiT-2KNS4B-SmBiT-Flag) L35A”, 2.6e+07 RLU.
For “duck TMUV 2KNS4B-SmBiT-Flag (pBiT-2KNS4B-SmBiT-Flag) K10A”, the response (parent: est. 3.3e7) amounted to 2e+07 RLU.
On the same count and under the same terms, under “duck TMUV 2KNS4B-SmBiT-Flag (pBiT-2KNS4B-SmBiT-Flag) E7A” stands 2.5e+07 RLU.
On to “duck TMUV 2KNS4B-SmBiT-Flag (pBiT-2KNS4B-SmBiT-Flag) G4A; W5A; L6A”, for which, where the note is “parent: est. 1.7e6”, the response was 1.3e+06 RLU.
Regarding “duck TMUV 2KNS4B-SmBiT-Flag (pBiT-2KNS4B-SmBiT-Flag) E7A; Q8A; T9A”, for the setting “parent: est. 1.7e6”, the response was found to be 830000 RLU.
On to “duck TMUV 2KNS4B-SmBiT-Flag (pBiT-2KNS4B-SmBiT-Flag) L6A”, for which, for the setting “parent: est. 3.3e7”, the response stood at 2.7e+07 RLU.
Take “duck TMUV 2KNS4B-SmBiT-Flag (pBiT-2KNS4B-SmBiT-Flag) R36A”: the response (parent: est. 3.3e7) amounted to 1.9e+07 RLU.
As to “duck TMUV 2KNS4B-SmBiT-Flag (pBiT-2KNS4B-SmBiT-Flag) E2A”, the response (parent: est. 3.3e7) is 2.4e+07 RLU.
In the case of “duck TMUV 2KNS4B-SmBiT-Flag (pBiT-2KNS4B-SmBiT-Flag) D34A; L35A; R36A”, the response (parent: est. 1.7e6) stood at 830000 RLU.
Regarding “duck TMUV 2KNS4B-SmBiT-Flag (pBiT-2KNS4B-SmBiT-Flag) W5A”, the response (parent: est. 3.3e7) is 1.5e+07 RLU.
As for “duck TMUV 2KNS4B-SmBiT-Flag (pBiT-2KNS4B-SmBiT-Flag) Q8A”, the response (parent: est. 3.3e7) is 2.7e+07 RLU.
“duck TMUV 2KNS4B-SmBiT-Flag (pBiT-2KNS4B-SmBiT-Flag) T9A”: the response (parent: est. 3.3e7) is 2.9e+07 RLU.
